Experimental data reported in US20090298755A1 (NEW ENGLAND MEDICAL CENTER HOSPITALS, published 2009).
Ends that are not written are not given here.

How the values were obtained:
µ receptor (rat brain) = target: T1, µ receptor (rat brain) (rat, UniProt P33535 1-398); experiment: radioligand competition, [3H]DAMGO on crude rat brain plasma membranes, 4 C, 90 min, filtration
T1 construct: whole, on cells; Native receptor in crude rat brain plasma membrane homogenate, not on intact cells; also called µ opioid receptor; opioid receptor
T1 sequence (P33535 whole entry): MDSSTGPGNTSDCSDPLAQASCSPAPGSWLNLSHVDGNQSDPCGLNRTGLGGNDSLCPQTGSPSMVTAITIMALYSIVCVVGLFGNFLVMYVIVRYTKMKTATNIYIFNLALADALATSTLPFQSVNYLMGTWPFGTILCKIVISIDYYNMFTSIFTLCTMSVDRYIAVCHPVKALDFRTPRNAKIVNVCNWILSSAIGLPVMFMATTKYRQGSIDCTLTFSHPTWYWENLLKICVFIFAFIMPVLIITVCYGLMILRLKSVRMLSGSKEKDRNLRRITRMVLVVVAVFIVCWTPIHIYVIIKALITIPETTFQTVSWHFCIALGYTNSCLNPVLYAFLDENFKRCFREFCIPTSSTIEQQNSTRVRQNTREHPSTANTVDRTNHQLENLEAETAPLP

NK1 receptor (rat brain) = target: T2, NK1 receptor (rat brain) (rat, UniProt P14600 1-407); experiment: radioligand competition, [125I]BH-SP on crude rat brain plasma membranes, room temperature, 75 min, filtration
T2 construct: whole, on cells; Native receptor in crude rat brain plasma membrane homogenate, not on intact cells; also called SP receptor
T2 sequence (P14600 whole entry): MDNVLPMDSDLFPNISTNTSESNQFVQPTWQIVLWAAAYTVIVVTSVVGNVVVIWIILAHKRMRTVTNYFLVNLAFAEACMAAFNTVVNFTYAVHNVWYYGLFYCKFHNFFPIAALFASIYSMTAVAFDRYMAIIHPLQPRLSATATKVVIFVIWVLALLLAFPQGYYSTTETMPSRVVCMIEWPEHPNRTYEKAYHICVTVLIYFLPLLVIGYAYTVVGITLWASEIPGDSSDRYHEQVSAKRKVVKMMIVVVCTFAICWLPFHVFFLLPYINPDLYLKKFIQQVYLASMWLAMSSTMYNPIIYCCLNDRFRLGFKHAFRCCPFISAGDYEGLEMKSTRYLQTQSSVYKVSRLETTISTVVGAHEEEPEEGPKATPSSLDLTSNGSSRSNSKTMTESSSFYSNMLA
Protocol: For binding assays to opioid receptors, frozen rat brains (−80° C.) were homogenized in 40 volumes of standard Tris buffer (50 mM Tris HCl (pH 7.4), 0.2 mg/ml BSA, 2.5 mM EDTA, 40 μg/m bacitracin, 30 μg/ml bestatin and 5 mM MgCl₂) and centrifuged at 15,000×g for 20 minutes. 100 mM NaCl was added to the buffer, in order to remove endogenous ligands, and the centrifugation was repeated. After a wash with standard buffer, the membrane preparation was finally resuspended in 10 volumes of incubation buffer (standard buffer with 4 μg/ml leupeptin and 2 μg/ml chymostatin). […] The brain homogenates were used on the day of preparation.
After filtration, the radioactivity was determined on a gamma-counter.

Kd (µ receptor (rat brain)): ~0.3 µM | Kd (NK1 receptor (rat brain)): ~0.2 µM
B1: ESP7 (peptide)
peptide: YPFFGLM-NH2
notes: Chimera of endomorphin-2 at the N-terminus and SP(7-11) at the C-terminus; also called chimeric peptide ESP7; Tyr-Pro-Phe-Phe-Gly-Leu-Met-NH2
